Consider three substances from publication PMC12271210.

Usually Kd stands for the free concentration of one partner at which half of the binding sites on the other are occupied at equilibrium, for simple one-to-one binding. The term koff denotes the rate constant with which the complex falls apart. Broadly, the kon is the rate constant with which the complex forms.

The target in one test is KPNB1. Kind of test: BLI; APS probe with immobilised KPNB1 (10 μg/ml, to saturation), N protein in solution (gradient 0.61–2.07 μM or 4.17–8.89 μM); 30°C, PBS + 0.2% BSA; 1:1 binding model; ForteBio Octet.
Test [1] has as its target HP-PRRSV N protein (porcine reproductive and respiratory syndrome virus (HP-PRRSV)). Kind of test: BLI; SA probe with immobilised N protein (10 μg/ml, immobilization height 2.2 nm), KPNA1 in solution (gradient 1.47–4.97 μM or 0.87–9.95 μM); 30°C, PBS + 0.2% BSA; 1:1 binding model; ForteBio Octet.
The target in test [2] is classic PRRSV N protein (porcine reproductive and respiratory syndrome virus (classic PRRSV)). The test is described as above.

For the substance “classic PRRSV N protein (natural protein)”, in the test with KPNB1, the Kd worked out at 293 nM, the koff was determined as 0.00179 s⁻¹ and the kon came to 6110 M⁻¹ s⁻¹.

HP-PRRSV N protein (natural protein): in the test with KPNB1, the Kd turned out to be 2130 nM, the koff turned out to be 0.00737 s⁻¹ and the kon came to 3450 M⁻¹ s⁻¹.

Turning to KPNA1 (receptor), in test [1], the equilibrium dissociation constant (Kd) came out at 910 nM, the koff is 0.000446 s⁻¹ and the kon worked out at 490 M⁻¹ s⁻¹. For the same substance, in test [2], the Kd was 304 nM, the koff was 0.000619 s⁻¹ and the on-rate (kon) was 2030 M⁻¹ s⁻¹.
